Publication PMC12548384

Tests used:
[1] = biological target: T1, CmrR (Clostridioides difficile R20291) (UniProt A0A9R0CG09); assay: EMSA; settings: EMSA: 15 nM probe, 1x binding buffer 20 mM Tris pH 8, 1 mM EDTA, 10 mM MgCl2, 100 mM NaCl, 5% glycerol, plus half volume protein in His6 buffer (10 mM Tris …)
T1 sequence: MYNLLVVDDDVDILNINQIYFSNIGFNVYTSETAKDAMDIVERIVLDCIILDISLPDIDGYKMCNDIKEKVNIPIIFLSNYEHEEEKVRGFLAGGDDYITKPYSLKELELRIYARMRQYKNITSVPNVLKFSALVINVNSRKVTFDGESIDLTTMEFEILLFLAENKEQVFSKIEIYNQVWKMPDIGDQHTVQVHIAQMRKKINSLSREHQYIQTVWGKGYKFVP

[2] = biological target: CmrT fused to the smbit or lgbit portion of split luciferase (C. difficile two-hybrid) (Clostridioides difficile R20291); assay: split reporter (BiFC, NanoBiT); C. difficile bacterial two-hybrid with split luciferase (smbit, lgbit) from one ATc-inducible transcript; 200 ng/mL ATc for 1 h in BHIS-Tm10; Nano-Glo reagent; luminescence per OD600
[3] = biological target: CmrT-D9A fused to the smbit or lgbit portion of split luciferase (C. difficile two-hybrid) (Clostridioides difficile R20291); assay: as above
[4] = biological target: CmrT-K102A fused to the smbit or lgbit portion of split luciferase (C. difficile two-hybrid) (Clostridioides difficile R20291); assay: as above

## ATTCAAGAATTGTTCAAAAATACTTAAGTATTATAGTCTAGTTTGTAAAGATATTATAAAATAATAATACTAGTTATATATGAAAATAAAACATTATAATTTGTAATAATTATAAAACTTGAGATTATGATTAAAATACCTTTGAATGGAGTGGTGTAATGTATAATTTACTGGTTGTAGATGATGATGTTG (double strand) [probe 4 (TSS4, 192 bp)]
[1]
  binding: binds more weakly

## CTAGCCAATAGACAAGTTTCTAGAAAAATAATAAATTTATAAGTGAAAATGACTTTAAGCTCCATTCTCCAACAATCGGAGACTTTAATTAGTATTTAATAATAAATCTTAATGTTCAATACAATATTCAAGAATTGTTCAAAAATACTTAAG (double strand) [probe 9 (cmr switch in other orientation than probe 6)]
[1]
  binding: binds

## CmrT fused to the smbit or lgbit portion of split luciferase (C. difficile two-hybrid) (natural protein)
[2]
  log10 fold luciferase activity over the negative control: 3.6 log10 fold

## CmrT-D9A fused to the smbit or lgbit portion of split luciferase (C. difficile two-hybrid) (natural protein)
[3]
  log10 fold change of luciferase signal against wild-type CmrT (log10 fold change): -1.27

## CmrT-K102A fused to the smbit or lgbit portion of split luciferase (C. difficile two-hybrid) (natural protein)
[4]
  log10 fold change of luciferase signal against wild-type CmrT (log10 fold change): -0.64

## GCCAAAATTTCACCTATCAATAAAAATCTTAACGACTAATACTCTTATTTTCAAATTTTGCAACATTTTTGTTAATTTTAAAGCAAAAAAAGACTATGCAATATAAAAATTATATTCATAGCCGGTTGCACCACTAACTCCATATATCTCC (double strand) [probe 2]
[1]
  binding: no binding

## GTATTTAATAATAAATCTTAATGTTCAATACAATATTCAAGAATTGTTCAAAAATACTTAAGTATTATAGTCTAGTTTGTAAAGATATTATAAAATAATAATACTAGTTATATATGAAAATAAAACATTATAATTTGTAATAATTATAAAACTTGAGATTATGATTAAAATACCTTTGAATGGAGTGGTGTAATGTATAATTTACTGGTTGTAGATGATGATGTTG (double strand) [probe 7 (TSS4, 226 bp)]
[1]
  binding: binds

## TTGCACCACTAACTCCATATATCTCCAGATGCCCAATAATAAGATATACTTCTCAGTTTCTAAAATATTTTTATTAAAAATCTTTTATATATTTTCATAAATTTCTTTTTTATTCTAACATTGTAATATTATTTTGTCAATATTTCCATATTTTTAGATATAAGATACTAAAATACCTATTTTATCTAAAGATATTTATATTTCTACATTCAATAATAGACAATACCCTGCAAGTTAAAGCATC (double strand) [probe 1 (upstream of TSS1)]
[1]
  binding: no binding
